Test results: PMC9716568, “The structure of His-tagged Geobacillus stearothermophilus purine nucleoside phosphorylase reveals a ‘spanner in the works’” (Acta Crystallographica. Section F, Structural Biology …, 2022)

Target: the molecule itself
Experiment: crystal structure; His-GsePNPase crystallized without ligands, 25 mg/ml in 50 mM HEPES pH 7.6, 100 mM NaCl, sitting drop, 291 K; three chains in the asymmetric unit, the hexamer generated by crystallographic symmetry; 1.72 Å

B1: N-terminally His-tagged purine nucleoside phosphorylase from Geobacillus stearothermophilus (enzyme)
chain: MHHHHHHSSGLVPRGSGMKETAAAKFERQHMDSPDLGTGSENLYFQGAMMSVHIGAKAGEIAERILLPGDPLRAKYIAETFLEGAVCYNEVRGMLGFTGTYKGERISVQGTGMGVPSISIYVNELIQSYGVKTLIRVGTCGAIQPDVRVRDVILAMSASTDSNMNRLIFRGRDYAPTADFHLLRTAYEVGVEKGLALKVGNVFTADMFYNDEPNWETWARYGVLAVEMETAALYTLAAKFGCRALSVLTVSDHILTGEETTAEERQMTFNEMIEVALEAAIRNGA
notes: hexameric purine nucleoside phosphorylase of Geobacillus stearothermophilus, KEGG GT50_19015, the open reading frame; the printed residue numbers (His4, Arg43, Arg87, Asp203) count from the first Met of this part; The whole construct as printed has 285 residues; The tag was not cleaved in the crystallized protein; also called His-GsePNPase; GsePNPase; source: E. coli BL21 (DE3), purified (IMAC on …)
  stoichiometry N: 6
